What all share (assay): cell-based or functional assay
Test [1] has as its target human IL-13 (human, UniProt P35225 35-146).
For test [2], the target named is T1, IL-33 (mm2), human IL-33 variant with all four cysteines changed to serine (human, UniProt O95760 112-270, limits assumed).
T1 sequence (looked up): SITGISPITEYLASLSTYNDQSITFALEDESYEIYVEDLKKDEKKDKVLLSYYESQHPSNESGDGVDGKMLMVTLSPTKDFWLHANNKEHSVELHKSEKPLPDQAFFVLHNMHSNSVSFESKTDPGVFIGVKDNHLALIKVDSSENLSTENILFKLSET

Test [3] deals with T2, human IL-4 (human, UniProt P05112 25-153).
T2 sequence (looked up): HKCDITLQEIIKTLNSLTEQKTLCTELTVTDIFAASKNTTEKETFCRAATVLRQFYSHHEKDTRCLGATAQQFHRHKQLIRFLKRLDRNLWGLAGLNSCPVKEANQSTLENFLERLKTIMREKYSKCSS

The target in test [4] is T3, recombinant human IL-33 (wild type, Ser112-Thr270) (human, UniProt O95760 112-270).
T3 sequence (looked up): T1 sequence (looked up) with S97C, S116C, S121C, S148C

Substitutions are numbered along the chain they refer to.

Chain of human IL-13 (P35225 35-146 limits assumed): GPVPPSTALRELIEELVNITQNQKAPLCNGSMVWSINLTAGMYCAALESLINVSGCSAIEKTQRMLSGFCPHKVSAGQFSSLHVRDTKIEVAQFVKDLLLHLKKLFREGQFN

B1: IL13433-0005 (other)
heavy: EVTLRESGPALVKPTQTLTLTCTFSGFSLSNFGEGLSWIRQPPGKGLEWLAHIYWDDDKRYNPSLKSRLTISKDTSRNQVVLTMTNMDPVDTATYYCARRETVFYWYFDVWGQGTTVTVSSASTKGPSVFPEAPSSKSTSGGTAALGCLVKDYFPEPVTVSWNSGALTSGVHTFPAVLQSSGLYSLGSVVTVPSSSLGTQTYICNVNHKPSNTKVDKKVEPKSCDKTHTCPPCPAPEAAGAPSVFLFPPKPKDTLMISRTPEVTCVVVDVSHEDPEVKFNWYVDGVEVHNAKTKPREEQYNSTYRVVSVLTVLHQDWLNGKEYKCKVSNKALPAPIEKTISKAKGQPREPQVYTLPPCREEMTKNQVSLSCAVKGFYPSDIAVEWESNGQPENNYKTTPPVLDSDGSFFLVSKLTVDKSRWQQGNVFSCSVMHEALHNHYTQKSLSLSPGK
chain 1: DIQMTQSPSSLSASVGDRVTITCKASQNINKHLDWYQQKPGKAPKLLIYFTNNLQTGVPSRFSGSGSGTDFTLTISSLQPEDFATYYCFQYNQGWTFGGGTKVEIKRTVAAPSVFIFPPSDEQLKSGTASVVCLLNNFYPREAKVQWKVDNALQSGNSQESVTEQDSKDSTYSLSSTLTLSKADYEKHKVYACEVTHQGLSSPVTKSFNRGECGGGGSEVQLVESGGGLVQPGGSLRLSCAASGFTFSSYAMSWVRQAPGKGLEWVASISSGDTTYYPDSVKGRFTISRDNAKNSLYLQMNSLRAEDTAVYYCARNEGYYFGLTLWGQGTLVTVSSASTKGPSVFPKAPSSKSTSGGTAALGCLVKDYFPEPVTVSWNSGALTSGVHTFPAVLQSSGLYSLSSSVTVPSSSLGTQTYICNVNHKPSNTKVDKKVEPKSCDKTHTCPPCPAPEAAGAPSVFLFPPKPKDTLMISRTPEVTCVVVDVSHEDPEVKFNWYVDGVEVHNAKTKPREEQYNSTYRVVSVLTVLHQDWLNGKEYKCKVSNKALPAPIEKTISKAKGQPREPQVCTLPPSREEMTKNQVSLWCLVKGFYPSDIAVEWESNGQPENNYKTTPPVLDSDGSFFLYSKLTVDKSRWQQGNVFSCSVMHEALHNHYTQKSLSLSPGK
light 1: DIQMTQSPSSLSASVGDRVTITCKASQSVDEDGDSYMNWYQQKPGKAPKLLIYAASNLESGVPSRFSGSGSGTDFTLTISSLQPEDFATYYCQQSNEDPPTFGGGTKVEIKRTVAAPSVFIFPPSDEQLKSGTASVSCLLNNFYPREAKVQWKVDNALQSGNSQESVTEQDSKDSTYSLKSTLTLSKADYEKHKVYACEVTHQGLSSPVTKSFNRGEC
light 2: B1 light 1 with Q27E, E31H, D32F, D34W, Y36L, M37V, N38H, A54R, P100W, K180D
chain 2: EVQLVESGGGLVQPGGSLRLSCAASGFTFSSYWMYWVRQAPGKGLEWVAAITPNAGEDYYPESVKGRFTISRDNAKNSLYLQMNSLRAEDTAVYYCARGHYYYTSYSLGYWGQGTLVTVSSASTKGPSVFPLAPSSKSTSGGTAALGCLVKDYFPEPVTVSWNSGALTSGVHTFPAVLQSSGLYSLSSVVTVPSSSLGTQTYICNVNHKPSNTKVDKKVEPKSC
As to B1, in test [1], the “a-hIL-13 bioassay (IC50, pM)” value turned out to be 12.5 pM. Moreover, the “a-IL-33 bioassay cys mutant IL33) IC50 (pM)” value in test [2] amounted to 45 pM. The “a-hIL-4 bioassay IC50, pM)” value in test [3] turned out to be 3.2 pM.

B2: IL13433-0006 (other)
heavy: EVQLVESGGGLVQPGGSLRLSCAASGFTFSSYAMSWVRQAPGKGLEWVASISSGDTTYYPDSVKGRFTISRDNAKNSLYLQMNSLRAEDTAVYYCARNEGYYFGLTLWGQGTLVTVSSASTKGPSVFPKAPSSKSTSGGTAALGCLVKDYFPEPVTVSWNSGALTSGVHTFPAVLQSSGLYSLSSSVTVPSSSLGTQTYICNVNHKPSNTKVDKKVEPKSCDKTHTCPPCPAPEAAGAPSVFLFPPKPKDTLMISRTPEVTCVVVDVSHEDPEVKFNWYVDGVEVHNAKTKPREEQYNSTYRVVSVLTVLHQDWLNGKEYKCKVSNKALPAPIEKTISKAKGQPREPQVCTLPPSREEMTKNQVSLWCLVKGFYPSDIAVEWESNGQPENNYKTTPPVLDSDGSFFLYSKLTVDKSRWQQGNVFSCSVMHEALHNHYTQKSLSLSPGK
chain 1: DIQMTQSPSSLSASVGDRVTITCKASQNINKHLDWYQQKPGKAPKLLIYFTNNLQTGVPSRFSGSGSGTDFTLTISSLQPEDFATYYCFQYNQGWTFGGGTKVEIKRTVAAPSVFIFPPSDEQLKSGTASVVCLLNNFYPREAKVQWKVDNALQSGNSQESVTEQDSKDSTYSLSSTLTLSKADYEKHKVYACEVTHQGLSSPVTKSFNRGECGGGGSEVTLRESGPALVKPTQTLTLTCTFSGFSLSNFGEGLSWIRQPPGKGLEWLAHIYWDDDKRYNPSLKSRLTISKDTSRNQVVLTMTNMDPVDTATYYCARRETVFYWYFDVWGQGTTVTVSSASTKGPSVFPEAPSSKSTSGGTAALGCLVKDYFPEPVTVSWNSGALTSGVHTFPAVLQSSGLYSLGSVVTVPSSSLGTQTYICNVNHKPSNTKVDKKVEPKSCDKTHTCPPCPAPEAAGAPSVFLFPPKPKDTLMISRTPEVTCVVVDVSHEDPEVKFNWYVDGVEVHNAKTKPREEQYNSTYRVVSVLTVLHQDWLNGKEYKCKVSNKALPAPIEKTISKAKGQPREPQVYTLPPCREEMTKNQVSLSCAVKGFYPSDIAVEWESNGQPENNYKTTPPVLDSDGSFFLVSKLTVDKSRWQQGNVFSCSVMHEALHNHYTQKSLSLSPGK
light 1: B1 light 1 with Q27E, E31H, D32F, D34W, Y36L, M37V, N38H, A54R, P100W, K180D
light 2: B1 light 1
chain 2: B1 chain 2
With B2, the “a-IL-33 bioassay (WT IL33) IC50 (pM)” value in test [4] is 112 pM. Besides, in test [1], the “a-hIL-13 bioassay (IC50, pM)” value stood at 9.01 pM. Moreover, in test [3], the “a-hIL-4 bioassay IC50, pM)” value worked out at 10.3 pM.

B3: IL13433-0607 (other)
heavy: B2 heavy with S53T, L107Q, Q110R, M429L, N435S
chain 1: B2 chain 1 with K24R, N28P, N30S, N280S, P281T, S285T, M650L, N656S
light 1: DIQMTQSPSSLSASVGDRVTITCRASESVDHFGWSLVHWYQQKPGKAPKLLIYRADSLETGVPSRFSGSGSGTDFTLTISSLQPEDFATYYCQQSNEDPWTFGGGTKVEIKRTVAAPSVFIFPPSDEQLKSGTASVSCLLNNFYPREAKVQWKVDNALQSGNSQESVTEQDSKDSTYSLDSTLTLSKADYEKHKVYACEVTHQGLSSPVTKSFNRGEC
light 2: B1 light 1 with K24R, D32E, N96H, E97K
chain 2: B1 chain 2
B3: the “a-hIL-13 bioassay (IC50, pM)” value in test [1] turned out to be 20.3 pM. In addition, the “a-IL-33 bioassay cys mutant IL33) IC50 (pM)” value in test [2] was determined as 182 pM. The “a-hIL-4 bioassay IC50, pM)” value in test [3] stood at 66.9 pM.

The record behind these values is patent US20240117030A1 (Pfizer, published 2024).
